Measurements from patent US20240285790A1 (HENRY M JACKSON FOUNDATION FOR THE ADVANCEMENT OF MILITARY …, published 2024).

Biological target: HIV-1 JRFL Env (full length), on infected primary CD4+ T cells and on virions (HIV-1 JRFL, UniProt P20871 32-503; P20871 504-848)
Test: cell-based or functional assay

B1: X5 antibody (antibody, V domains shown)
VH: VQLLEQSGAEVKKPGSSVQVSCKASGGTFSMYGFNWVRQAPGHGLEWMGGIIPIFGTSNYAQKFRGRVTFTADQATSTAYMELTNLRSDDTAVYYCARDFGPDWEDGDSYDGSGRGFFDFWGQGTLVTVSS
VL: ELVLTQSPGTLSLSAGERATLSCRASQSVSSGSLAWYQQKPGQAPRLLIYGASTRATGIPDRFSGSGSGTDFTLTIGRLEPEDLAVYYCQQYGTSPYTFGQGTKLEIKR
With B1 the “Neutralization IC50 against JRFL (X5 + sCD4 mix)” value was 3.23 µg/mL and the “Neutralization IC50 against JRFL (X5 antibody alone)” value was over 10 µg/mL.

B2: A32 antibody (antibody, V domains shown)
VH: QVQLQESGPGLVKPSQTLSLSCTVSGGSSSSGAHYWSWIRQYPGKGLEWIGYIHYSGNTYYNPSLKSRITISQHTSENQFSLKLNSVTVADTAVYYCARGTRLRTLRNAFDIWGQGTMVTVSS
VL: VLTQPPSASGSPGQSVTISCTGTSSDVGGYNYVSWYQHHPGKAPKLIISEVNNRPSGVPDRFSGSKSGNTASLTVSGLQAEDEAEYYCSSYTDIHNFVFGGGTKLTVLG
For B2, the “Neutralization IC50 against JRFL (A32 + sCD4 mix)” value was over 10 µg/mL and the “Neutralization IC50 against JRFL (A32 antibody alone)” value was over 10 µg/mL.

B3: N5-i5 antibody (antibody, V domains shown)
VH: EVQLVESGGGLVQPGGSLRLSCAASGFTFSTYAMSWVRQAPGKGLEWVSSINNSGRNTFSADSVKGRFTISRDNSKNTLFLVMNSLRAEDTAVYYCAKDLRLGGGSDYWGQGTLVTVSS
VL: QSALTQPASVSGSPGQSITISCTGTSSDVGSYNFVSWYQQHPGKAPKLMIYEVSERPSGISNRFSGSKSGNTASLTISGLQAEDEADYYCSSYAGSTTFRVFGGGTKLTVRG
For B3, the “Neutralization IC50 against JRFL (N5-i5 + sCD4 mix)” value was over 10 µg/mL and the “Neutralization IC50 against JRFL (N5-i5 antibody alone)” value was over 10 µg/mL.
